From patent publication US20050037969A1 (ARBOR VITA, published 2005)
Ends that are not written are not given here. * marks the point of attachment. Biotin = O=C1N[C@H]2[C@H](CS[C@H]2CCCCC(=O)*)N1

What was measured:
Experiment in all cases: A/G assays
[1] = biological target: T1, GST-TAX-IP2 PDZ domain fusion protein (human, UniProt O14908 129-216)
T1 construct: also called TAX-1P2; TAX2; not shown: glutathione S-transferase encoded by vector pGEX-3X (Pharmacia)
T1 chain: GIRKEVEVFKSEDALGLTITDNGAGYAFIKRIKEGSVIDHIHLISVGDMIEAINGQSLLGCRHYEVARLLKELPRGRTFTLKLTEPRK

[2] = biological target: T2, GST-LIM protein PDZ domain fusion protein (Human, UniProt Q96HC4 2-85)
T2 construct: also called Human LIM protein; not shown: glutathione S-transferase encoded by vector pGEX-3X (Pharmacia)
T2 sequence: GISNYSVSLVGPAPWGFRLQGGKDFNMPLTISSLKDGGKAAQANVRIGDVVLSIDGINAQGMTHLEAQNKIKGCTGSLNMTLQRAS

[3] = biological target: T3, GST-TIAM1 PDZ domain fusion protein (Homo sapiens (Human), UniProt Q13009 845-931)
T3 construct: also called TLAM1; T-lymphoma invasion and metastasis inducing protein 1; not shown: glutathione S-transferase encoded by vector pGEX-3X (Pharmacia)

[4] = biological target: T4, X11β PDZ-GST fusion protein (Rattus norvegicus (Rat), UniProt O35431 560-745)
T4 construct: Order of GST and PDZ part and limits not seen in the excerpts
T4 chain: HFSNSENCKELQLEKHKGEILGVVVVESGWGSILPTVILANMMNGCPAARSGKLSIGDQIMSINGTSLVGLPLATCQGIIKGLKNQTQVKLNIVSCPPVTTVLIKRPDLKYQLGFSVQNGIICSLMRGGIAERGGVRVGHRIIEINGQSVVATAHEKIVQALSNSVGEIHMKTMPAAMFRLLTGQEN

[5] = biological target: T5, GST-AF6 PDZ domain fusion protein (Homo sapiens (Human), UniProt P55196 1001-1093)
T5 construct: also called af-6 protein; not shown: glutathione S-transferase encoded by vector pGEX-3X (Pharmacia)
T5 sequence: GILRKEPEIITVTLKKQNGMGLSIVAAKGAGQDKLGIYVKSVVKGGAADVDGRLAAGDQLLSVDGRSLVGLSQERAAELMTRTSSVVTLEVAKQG

[6] = biological target: T6, GST-PDZK1 fusion protein (PDZ domains 2-4) (Homo sapiens, UniProt Q5T2W1 134-457)
T6 construct: not shown: glutathione S-transferase encoded by vector pGEX-3X (Pharmacia)
T6 sequence: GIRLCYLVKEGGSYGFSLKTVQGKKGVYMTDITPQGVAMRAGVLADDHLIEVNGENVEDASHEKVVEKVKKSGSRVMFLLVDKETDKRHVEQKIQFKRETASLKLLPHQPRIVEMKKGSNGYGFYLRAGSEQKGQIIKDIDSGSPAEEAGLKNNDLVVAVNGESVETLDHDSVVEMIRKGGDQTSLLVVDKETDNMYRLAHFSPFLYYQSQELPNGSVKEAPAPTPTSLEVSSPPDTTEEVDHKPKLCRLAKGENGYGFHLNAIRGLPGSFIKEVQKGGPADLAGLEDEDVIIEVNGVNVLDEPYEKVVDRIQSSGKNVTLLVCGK

[7] = biological target: T7, GST-RGS12 PDZ domain fusion protein (human, UniProt O14924 17-85)
T7 construct: also called human regulator of G-protein signalling 12; not shown: glutathione S-transferase encoded by vector pGEX-3X (Pharmacia)
T7 sequence: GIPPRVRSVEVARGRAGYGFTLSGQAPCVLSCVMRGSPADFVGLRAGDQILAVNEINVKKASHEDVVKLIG

[8] = biological target: T8, K858 PDZ-GST fusion protein (Homo sapiens (Human), UniProt Q8WWI1 1038-1131)
T8 construct: Order of GST and PDZ part and limits not seen in the excerpts
T8 sequence: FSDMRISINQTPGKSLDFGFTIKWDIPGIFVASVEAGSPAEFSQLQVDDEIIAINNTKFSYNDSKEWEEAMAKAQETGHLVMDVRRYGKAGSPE

[9] = biological target: T9, GST-prIL16 fusion protein (PDZ domains 1-2) (Homo sapiens (Human), UniProt Q14005 1111-1324)
T9 construct: also called putative interleukin 16 precursor; not shown: glutathione S-transferase encoded by vector pGEX-3X (Pharmacia)
T9 sequence: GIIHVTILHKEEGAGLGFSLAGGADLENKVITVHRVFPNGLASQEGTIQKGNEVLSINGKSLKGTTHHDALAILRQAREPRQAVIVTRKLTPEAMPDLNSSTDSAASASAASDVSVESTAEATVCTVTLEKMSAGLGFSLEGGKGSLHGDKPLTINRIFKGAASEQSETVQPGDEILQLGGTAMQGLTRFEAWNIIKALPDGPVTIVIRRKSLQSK

[10] = biological target: T10, ConEn PDZ-GST fusion protein (Homo sapiens (Human), UniProt Q969H4 193-287)
T10 construct: The label ConEn is not explained in the excerpts
T10 sequence: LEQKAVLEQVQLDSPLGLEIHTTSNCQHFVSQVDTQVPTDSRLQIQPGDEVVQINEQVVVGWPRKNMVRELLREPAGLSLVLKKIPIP

[11] = biological target: T11, GST-MPP1 PDZ domain fusion protein (Homo sapiens (Human), UniProt Q00013 67-152)
T11 construct: also called p55; 55 Kd erythrocyte membrane protein; not shown: glutathione S-transferase encoded by vector pGEX-3X (Pharmacia)
T11 sequence: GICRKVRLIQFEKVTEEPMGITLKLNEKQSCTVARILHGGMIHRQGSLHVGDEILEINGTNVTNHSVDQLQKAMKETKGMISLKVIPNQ

[12] = biological target: T12, GST-TAX-IP40 PDZ domain fusion protein (human, UniProt Q6B4M5 150-252 (rat entry))
T12 construct: also called TAX40; not shown: glutathione S-transferase encoded by vector pGEX-3X (Pharmacia)
T12 sequence: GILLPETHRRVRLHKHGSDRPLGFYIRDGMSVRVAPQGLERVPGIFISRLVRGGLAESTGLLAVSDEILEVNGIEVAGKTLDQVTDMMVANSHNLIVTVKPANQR

[13] = biological target: T13, NSP PDZ-GST fusion protein (Homo sapiens (Human), UniProt Q92743 370-466)
T13 construct: The label NSP is not explained in the excerpts

[14] = biological target: T14, GST-cytohesin binding protein PDZ domain fusion protein (Homo sapiens (Human), UniProt O60759 74-165)
T14 construct: also called CBP; not shown: glutathione S-transferase encoded by vector pGEX-3X (Pharmacia)
T14 sequence: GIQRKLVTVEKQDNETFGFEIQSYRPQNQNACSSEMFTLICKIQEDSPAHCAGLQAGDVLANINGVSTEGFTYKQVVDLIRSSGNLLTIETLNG

Measured: binding result

T3 sequence (Q13009 other isoform, or with tags, fused parts or gaps): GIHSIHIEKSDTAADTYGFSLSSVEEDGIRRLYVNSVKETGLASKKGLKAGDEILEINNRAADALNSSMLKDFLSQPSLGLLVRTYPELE
T13 sequence (Q92743 other isoform, or with tags, fused parts or gaps limits assumed): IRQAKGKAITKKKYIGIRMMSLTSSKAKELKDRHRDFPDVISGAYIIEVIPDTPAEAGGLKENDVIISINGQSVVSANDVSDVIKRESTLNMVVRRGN

B1: FasL C-terminal peptide AA23L-M, biotinylated (peptide)
peptide: Biotin-SSKSKSSEESQTFFGLYKL
modifications: not fully specified
notes: also called FasLigand; Fas ligand
no binding: all assays above

B2: CD62E C-terminal peptide AA48L (peptide)
peptide: Biotin-SSSQSLESDGSYQKPSYIL
notes: Only the last four residues are seen in the excerpts
no binding: all assays above

B3: CC CKR-3 C-terminal peptide AA43L (peptide)
peptide: Biotin-LERTSSVSPSTAEPELSIVF
notes: as for B2
no binding: all assays above

B4: CD114 (G-CSFR) C-terminal peptide AA27L (peptide)
peptide: Biotin-LNFPLLQGIRVHGMEALGSF
notes: as for B2
no binding: all assays above

B5: CD148 C-terminal peptide AA19L, biotinylated (peptide)
peptide: Biotin-ENLAPVTTFGKTNGYIA
notes: also called CD148 (DEP-1)
no binding: all assays above

B6: Clasp-1 C-terminal peptide AA1L, biotinylated (peptide)
peptide: Biotin-ISKATPALPTVSISSSAEV
notes: also called AA1L-R
no binding: all assays above

B7: Mannose receptor C-terminal peptide AA31L (peptide)
peptide: Biotin-GTSDMKDLVGNIEQNEHSVI
notes: as for B2
no binding: all assays above
